{"source": "paper PMC10963238", "about": "“The bacterial division protein MinDE has an independent function in flagellation” (The Journal of Biological Chemistry, 2024)", "binders": {"B1": {"name": "GST-MinD (natural protein, Escherichia coli K-12, UniProt P0AEZ3 1-270, looked up)", "chain": "MARIIVVTSGKGGVGKTTSSAAIATGLAQKGKKTVVIDFDIGLRNLDLIMGCERRVVYDFVNVIQGDATLNQALIKDKRTENLYILPASQTRDKDALTREGVAKVLDDLKAMDFEFIVCDSPAGIETGALMALYFADEAIITTNPEVSSVRDSDRILGILASKSRRAENGEEPIKEHLLLTRYNPGRVSRGDMLSMEDVLEILRIKLVGVIPEDQSVLRASNQGEPVILDINADAGKAYADTVERLLGEERPFRFIEEEKKGFLKRLFGG", "notes": "MinD of Escherichia coli K-12; ORF amplified from E. coli K-12 genomic DNA; also called GST-tagged MinD; source: dialyzed against 50 mM Hepes pH 7.4, 150 mM KCl, 10% glycerol"}}, "target": "T1, His-tagged cytoplasmic part of AtoS (232–608aa, cyto-AtoS) (Escherichia coli K-12, UniProt Q06067 232-608)", "T1 construct": "AtoS of Escherichia coli K-12, cytoplasmic part, residues 232-608; also called His-cyto-AtoS; His-AtoS; source: E. coli BL21 [DE3], purified (Ni2+-NTA agarose)", "T1 sequence (looked up)": "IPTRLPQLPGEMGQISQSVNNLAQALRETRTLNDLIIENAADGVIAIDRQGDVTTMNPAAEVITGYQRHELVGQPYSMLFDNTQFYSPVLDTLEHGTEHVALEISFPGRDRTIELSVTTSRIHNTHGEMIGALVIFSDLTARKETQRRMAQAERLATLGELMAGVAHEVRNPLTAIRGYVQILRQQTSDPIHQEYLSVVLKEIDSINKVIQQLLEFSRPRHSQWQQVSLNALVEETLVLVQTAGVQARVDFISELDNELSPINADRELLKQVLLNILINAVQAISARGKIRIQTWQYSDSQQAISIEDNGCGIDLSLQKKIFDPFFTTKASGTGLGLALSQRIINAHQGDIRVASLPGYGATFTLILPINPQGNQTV", "assay": "pull-down; GST-MinD (5 μM) with His-cyto-AtoS (5 μM) in 50 mM Hepes pH 7.4, 150 mM KCl, room temperature 30 min; His-cyto-AtoS held on HisPure cobalt resin, 1 h at 4 °C; washed with 20 mM imidazole, eluted with 300 mM imidazole; Western blot with anti-GST and anti-His", "details": "both partners purified"}
{"binder": "B1", "values": [{"measurement": "binding result", "result": "binds"}]}
